Laboratory results taken from article PMC5571166, “Mapping the key residues of SufB and SufD essential for biosynthesis of iron-sulfur clusters” (Scientific Reports, 2017).

T1: SufB^N228A (Escherichia coli, UniProt P77522 1-495, SufB^N228A)
T1 construct: SufB of the Escherichia coli sufABCDSE operon
T1 sequence: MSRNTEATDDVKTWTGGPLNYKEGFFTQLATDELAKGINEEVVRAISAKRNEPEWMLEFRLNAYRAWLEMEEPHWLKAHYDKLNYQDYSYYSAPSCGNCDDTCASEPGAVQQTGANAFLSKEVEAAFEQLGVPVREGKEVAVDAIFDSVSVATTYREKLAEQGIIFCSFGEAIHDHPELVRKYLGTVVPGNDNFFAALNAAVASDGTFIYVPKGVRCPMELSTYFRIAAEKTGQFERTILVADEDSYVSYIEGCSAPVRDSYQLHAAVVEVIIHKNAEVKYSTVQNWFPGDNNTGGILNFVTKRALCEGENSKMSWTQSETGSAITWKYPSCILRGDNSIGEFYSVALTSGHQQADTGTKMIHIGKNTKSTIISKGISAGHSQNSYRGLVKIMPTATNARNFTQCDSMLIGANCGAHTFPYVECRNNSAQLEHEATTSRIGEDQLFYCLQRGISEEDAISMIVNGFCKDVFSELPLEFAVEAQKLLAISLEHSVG

T2: SufB^C254A (Escherichia coli, UniProt P77522 1-495, SufB^C254A)
T2 construct: SufB of the Escherichia coli sufABCDSE operon; source: pBBR-sufAB carrying the mutation, in bacterial extract
T2 sequence: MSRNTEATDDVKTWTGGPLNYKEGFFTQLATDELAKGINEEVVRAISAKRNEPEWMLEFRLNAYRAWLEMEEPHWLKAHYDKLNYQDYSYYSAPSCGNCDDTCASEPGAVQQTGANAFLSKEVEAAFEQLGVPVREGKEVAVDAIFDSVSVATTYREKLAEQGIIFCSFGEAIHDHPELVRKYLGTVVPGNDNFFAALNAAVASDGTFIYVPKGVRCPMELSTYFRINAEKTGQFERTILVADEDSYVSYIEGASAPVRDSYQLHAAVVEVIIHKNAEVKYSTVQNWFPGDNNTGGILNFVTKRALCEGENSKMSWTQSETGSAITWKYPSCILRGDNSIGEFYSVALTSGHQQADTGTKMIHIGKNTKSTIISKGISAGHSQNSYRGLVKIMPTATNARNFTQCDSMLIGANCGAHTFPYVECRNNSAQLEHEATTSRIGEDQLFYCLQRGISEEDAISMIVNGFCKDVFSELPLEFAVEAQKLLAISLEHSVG

T3: SufB^Q285A (Escherichia coli, UniProt P77522 1-495, SufB^Q285A)
T3 construct: SufB of the Escherichia coli sufABCDSE operon; source: pBBR-sufAB carrying the mutation, in bacterial extract
T3 sequence: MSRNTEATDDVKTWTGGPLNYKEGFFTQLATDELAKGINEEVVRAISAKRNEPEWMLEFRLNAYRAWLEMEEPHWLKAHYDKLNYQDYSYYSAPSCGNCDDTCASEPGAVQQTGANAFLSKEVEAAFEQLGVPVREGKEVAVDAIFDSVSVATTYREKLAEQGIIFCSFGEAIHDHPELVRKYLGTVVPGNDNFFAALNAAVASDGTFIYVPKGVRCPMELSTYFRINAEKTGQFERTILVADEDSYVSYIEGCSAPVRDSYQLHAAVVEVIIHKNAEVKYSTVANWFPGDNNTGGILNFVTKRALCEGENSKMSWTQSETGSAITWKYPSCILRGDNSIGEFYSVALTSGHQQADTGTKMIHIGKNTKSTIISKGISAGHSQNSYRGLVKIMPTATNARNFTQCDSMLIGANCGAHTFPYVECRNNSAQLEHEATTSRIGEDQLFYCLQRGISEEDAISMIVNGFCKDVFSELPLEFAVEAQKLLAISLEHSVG

T4: SufB^E434A (Escherichia coli, UniProt P77522 1-495, SufB^E434A)
T4 construct: SufB of the Escherichia coli sufABCDSE operon
T4 sequence: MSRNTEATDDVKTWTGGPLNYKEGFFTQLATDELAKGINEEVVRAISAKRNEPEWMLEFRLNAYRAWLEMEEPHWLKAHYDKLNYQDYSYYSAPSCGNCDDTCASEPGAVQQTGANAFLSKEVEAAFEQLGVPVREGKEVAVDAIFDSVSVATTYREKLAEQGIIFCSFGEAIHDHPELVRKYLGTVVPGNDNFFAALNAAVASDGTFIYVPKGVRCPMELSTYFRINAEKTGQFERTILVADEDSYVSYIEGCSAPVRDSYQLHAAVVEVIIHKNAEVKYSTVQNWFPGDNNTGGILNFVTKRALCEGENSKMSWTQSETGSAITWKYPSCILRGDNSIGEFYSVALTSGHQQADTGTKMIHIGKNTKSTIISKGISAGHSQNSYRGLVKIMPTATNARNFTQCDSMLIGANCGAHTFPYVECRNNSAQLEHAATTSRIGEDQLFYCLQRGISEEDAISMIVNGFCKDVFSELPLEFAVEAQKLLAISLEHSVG


Assays:
Test in all cases: SEC; SufBCD complexes co-expressed in E. coli and co-purified on Phenyl FF, Q XL and Sephacryl S-200; eluted from gel filtration at about 160 kDa; subunit composition checked by SDS-PAGE of the purified sample
Settings in all cases: both partners purified
SufB^N228A = target: T1, SufB^N228A
SufB^C254A = target: T2, SufB^C254A
SufB^Q285A = target: T3, SufB^Q285A
SufB^E434A = target: T4, SufB^E434A

| binding result (SufB^N228A) | binding result (SufB^C254A) | binding result (SufB^Q285A) | binding result (SufB^E434A) | Binder |
| --- | --- | --- | --- | --- |
| binds | binds | binds | binds | SufC (natural protein, Escherichia coli, SufC of the Escherichia coli sufABCDSE operon; also called SufC subunit of the SufBCD complex) MLSIKDLHVSVEDKAILRGLSLDVHPGEVHAIMGPNGSGKSTLSATLAGREDYEVTGGTVEFKGKDLLALSPEDRAGEGIFMAFQYPVEIPGVSNQFFLQTALNAVRSYRGQETLDRFDFQDLMEEKIALLKMPEDLLTRSVNVGFSGGEKKRNDILQMAVLEPELCILDESDSGLDIDALKVVADGVNSLRDGKRSFIIVTHYQRILDYIKPDYVHVLYQGRIVKSGDFTLVKQLEEQGYGWLTEQQ |
| binds | binds | binds | binds | SufD (natural protein, Escherichia coli, SufD of the Escherichia coli sufABCDSE operon; One SufD per SufBCD complex (1:2:1); also called SufD subunit of the SufBCD complex) MAGLPNSSNALQQWHHLFEAEGTKRSPQAQQHLQQLLRTGLPTRKHENWKYTPLEGLINSQFVSIAGEISPQQRDALALTLDSVRLVFVDGRYVPALSDATEGSGYEVSINDDRQGLPDAIQAEVFLHLTESLAQSVTHIAVKRGQRPAKPLLLMHITQGVAGEEVNTAHYRHHLDLAEGAEATVIEHFVSLNDARHFTGARFTINVAANAHLQHIKLAFENPLSHHFAHNDLLLAEDATAFSHSFLLGGAVLRHNTSTQLNGENSTLRINSLAMPVKNEVCDTRTWLEHNKGFCNSRQLHKTIVSDKGRAVFNGLINVAQHAIKTDGQMTNNNLLMGKLAEVDTKPQLEIYADDVKCSHGATVGRIDDEQIFYLRSRGINQQDAQQMIIYAFAAELTEALRDEGLKQQVLARIGQRLPGGAR |
